Results: publication PMC4470286 (Genes & Development, 2015)

T1: Fob1 (wild type) without GST, purified from yeast (S. cerevisiae, UniProt O13329 1-566)
T1 sequence (looked up): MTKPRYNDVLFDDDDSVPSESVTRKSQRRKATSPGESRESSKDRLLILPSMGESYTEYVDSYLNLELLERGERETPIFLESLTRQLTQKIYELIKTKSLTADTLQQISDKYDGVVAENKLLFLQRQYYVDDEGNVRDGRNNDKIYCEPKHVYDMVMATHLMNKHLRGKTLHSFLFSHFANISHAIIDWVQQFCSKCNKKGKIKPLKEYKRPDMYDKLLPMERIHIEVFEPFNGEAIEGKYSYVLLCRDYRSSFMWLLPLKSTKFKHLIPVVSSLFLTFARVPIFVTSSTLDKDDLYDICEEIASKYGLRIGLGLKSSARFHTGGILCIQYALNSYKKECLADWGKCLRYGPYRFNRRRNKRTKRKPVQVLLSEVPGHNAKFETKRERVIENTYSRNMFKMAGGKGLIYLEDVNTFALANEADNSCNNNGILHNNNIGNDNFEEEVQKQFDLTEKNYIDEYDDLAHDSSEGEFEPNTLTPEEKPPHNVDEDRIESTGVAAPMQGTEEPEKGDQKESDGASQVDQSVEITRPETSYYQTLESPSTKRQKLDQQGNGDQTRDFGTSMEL

B1: Reb1 protein of Schizosaccharomyces pombe (natural protein, UniProt Q9P6H9 1-504, looked up)
chain: MDTSVLNPELQIHGFIGVDSLQSSRKRKNDFDDFPLNKGLKTNNNDYSGSIEPKFSPALSIKEDGKNDRNFEALMSLQAQDSNLSEQNTSIHLDALASSSIALGNDNVDSSAFLSKVNKGVNAMRNSTSNQTNDSILISPSEITNMDPFLKGSARWTAEHWDYLERRMQNFCQTYSLDHTQVADSLHEKRLHGPLSSLVKLLVQEMPSFTRRTILRHLRALYNIPGYEKYSRKNSSGRGDFGVQETAIISQEVHNFIMDQGWSEYQFCNQIWAGKCPKTIRMFYSNLYKKLSHRDAKSIYHHVRRAYNPFEDRCVWSKEEDEELRKNVVEHGKCWTKIGRKMARMPNDCRDRWRDVVRFGDKLKRNAWSLEEETQLLQIVAELRNREDLSSDINWTLVAQMLGTRTRLQCRYKFQQLTKAASKFELQENVWLLERIYDSLLNNGGKIHWENIVKEANGRWTRDQMLFQFINLKKMIPSYDNLPLLEATKSAIDDFKVVLSGFSN
B2: N-Fob1-GST, purified from yeast (domain or fragment, S. cerevisiae, UniProt O13329 1-429, looked up)
chain: MTKPRYNDVLFDDDDSVPSESVTRKSQRRKATSPGESRESSKDRLLILPSMGESYTEYVDSYLNLELLERGERETPIFLESLTRQLTQKIYELIKTKSLTADTLQQISDKYDGVVAENKLLFLQRQYYVDDEGNVRDGRNNDKIYCEPKHVYDMVMATHLMNKHLRGKTLHSFLFSHFANISHAIIDWVQQFCSKCNKKGKIKPLKEYKRPDMYDKLLPMERIHIEVFEPFNGEAIEGKYSYVLLCRDYRSSFMWLLPLKSTKFKHLIPVVSSLFLTFARVPIFVTSSTLDKDDLYDICEEIASKYGLRIGLGLKSSARFHTGGILCIQYALNSYKKECLADWGKCLRYGPYRFNRRRNKRTKRKPVQVLLSEVPGHNAKFETKRERVIENTYSRNMFKMAGGKGLIYLEDVNTFALANEADNSCNNNG
B3: C-terminal Fob1 with a kinase tag (from a pMAL fusion) (domain or fragment, S. cerevisiae, UniProt O13329 430-566, looked up)
chain: ILHNNNIGNDNFEEEVQKQFDLTEKNYIDEYDDLAHDSSEGEFEPNTLTPEEKPPHNVDEDRIESTGVAAPMQGTEEPEKGDQKESDGASQVDQSVEITRPETSYYQTLESPSTKRQKLDQQGNGDQTRDFGTSMEL
modifications: 32P-labeled

How the values were obtained:
[1] = molecular target: the molecule itself; experiment: crystal structure
[2] = molecular target: T1, Fob1 (wild type) without GST, purified …; experiment: ELISA
[3] = molecular target: B2; experiment: pull-down

With B1 the “stoichiometry N” value [1] was 2.

B2: binds [2].

B3: binds [3].
